Measured values published in US20230190885A1, “PLACENTAL ALKALINE PHOSPHATASE TO PROMOTE SCAR-FREE HEALING OF ACNE VULGARIS AND OTHER INFLAMMATORY SKIN LESIONS CAUSED BY MICROBIAL INFECTIONS” (priority 2021, published 2023).

Legend:
[1] = test system: HaCaT cells; assay: MTT assay, proliferation/viability of HaCaT keratinocytes; format: cell-based, human; conditions: 72 hours; for Viability of Cells (Absorption: A540) HaCaT cells: MTT, 200 nM PLAP or rPLAP, 100 µM ATP, mean ± S.D. of eight wells
Excerpt: The immortalized human HaCaT keratinocyte cell line, isolated in 1988 [Boukamp, P., Petrussevska, R.T., Breitkreutz, D., Hornung, J., and Markham, A., “Normal keratinization in a spontaneously immortalized aneuploid human keratinocyte cell line,” J. Cell. Biol., 106, 761-771, 1988], was provided for these studies by the Institute of Dermatology, Szeged University, , Szeged, Hungary). HaCaT cells were maintained in 10% fetal bovine serum (FBS) and 1% penicillin-streptomycin -containing Dulbecco’s modified Eagle’s medium (DMEM) up to 80% confluency in an incubator (5% CO2, 37° C.). Cells were plated into 96 well plates at 20% confluency and incubated for 72 hours in an incubator (5% CO2, 37° C.) with 200 nM purified PLAP or rPLAP in the absence or presence of 100 µM ATP.
(§1) The relative changes in the number of viable cells were determined by the MTT assay. This colorimetric assay is based on the ability of living healthy cells (mostly the mitochondrial compartment), but not dead cells, to reduce 3-(4,5-dimethyl thizaol-2-yl)-[…] to a blue formazan product [Carmichael, J., De Graft, W.G., Gazdar, A.F., Minna, J.D. and Mitchell, J.B. Evaluation of tetrazolium-based semi-automated colorimetric assay: Assessment of chemosensitivity resting. Cancer Res. 47, 936-942, 1987] This technique is a widely used and accepted method to accurately determine the relative numbers of viable cells. For example, this is the official method used by the National Cancer Institute to screen anticancer drugs.
(§2) A MULTISKAN MS microplate reader purchased from Labsystems (Franklin, Massachusetts) was used to measure the formation of formazan as an increase in absorbance at a test wavelength of 540 nm and a reference wavelength of 690 nm. In the data analysis, data were expressed as mean values ± standard deviation (S.D.) of eight incubations (from eight wells) in one experiment. In each case, incubations were performed for 72 hours.

[2] = test system: CCD 966 SK fibroblasts; assay: MTT assay, proliferation/viability of CCD 966 SK fibroblasts; format: cell-based, human; conditions: 72 hours; for Viability of Cells (Absorption: A540) CCD 966 SK: MTT, 200 nM PLAP or rPLAP, 100 µM ATP, mean ± S.D. of eight wells
Method: CCD 966 SK fibroblasts, originally derived from a subject and purchased from American Type Culture Collection (Alexandria, Virginia), were at passage 5 when used. The fibroblasts were maintained and treated as described above for the HaCaT cells.
as §1, §2

[3] = test system: shingles; assay: Treatment of shingles in human subjects; format: in vivo; conditions: two subjects, recurrent painful shingles, oral, 4-times a day
Method: The PLAP cream can be used for the local treatment of Shingles or other skin lesions caused by reactivated HSV-1 or HSV-2 generally, but not always, along with treatment with a prescribed antiviral drug. The same carriers and additives may be used as described for the acne treatment, The recommended amount of PLAP per 1 gram carrier is 2.0 to 10.0 mg. Generally, the larger the lesion the more PLAP per 1 gram carrier is needed. As examples, if the area of the lesion is 10 cm^2 or smaller, 2 mg per 1 gram carrier is suitable. If the area of the lesion is larger than 10 cm^2 then, depending on the lesion’s size, the recommended concentration of PLAP is between 2.1 to 10.0 mg per 1 gram carrier. Local treatment of the lesion with PLAP cream is performed once daily along with oral administration of the prescribed antiviral drug (usually four-times a day). Local administration of the antiviral drug is not recommended. In case of shingles, when the lesion treated with placental alkaline phosphatase or an active derivative is smaller than 2.0 cm^2, the use of an antiviral drug is optional. In cases of skin lesions caused by HSV-1 or HSV-2, the use of an oral antiviral drug is optional regardless of the lesion’s size.
Two individuals (one person and one person) had recurrent painful shingles at 10-16 months intervals, usually lasting for 4-6 weeks without treatment, associated with pain lasting beyond 6 weeks that prevented them to get a good night sleep.
When a new recurrence of shingles occurred again, the same two subjects were co-treated with local PLAP cream (5 mg PLAP in 1-gram Vaselinum cholesterinatum) and oral acyclovir. The two subjects responded to this combination treatment similarly.
They started the treatment with acyclovir and PLAP cream on day 0. […] Complete healing of both subjects occurred by day 12 (the subject) and day 14 (the subject).
Two female individuals, had recurrent (practically yearly) moderate shingles (one had under the breast, the other had on the arm, both approximately the size of 1-2 cm^2) previously lasting for about 2-3 weeks. […]

[4] = test system: acne lesion; assay: Topical treatment of acne lesions in human subjects; format: in vivo; conditions: for visible effect on acne covered area: person, before PLAP treatment
Excerpt: Highly purified placenta derived PLAP, or essentially pure recombinant PLAP, or an essentially pure active derivative thereof, is dispersed in a suitable carrier and gently massaged onto the acne lesion. The carrier used in the invention is Vaselinum cholesterinatum, but it may be replaced by Vaselinum flavum or Vaselinum album. Vaselinum cholesterinatum consists of about 1.5 wt.-% cholesterol, about 5.0 wt.-% cerae lanae, and about 93.5 wt.-% Vaselinum flavum. In this invention, for a preparation containing PLAP or rPLAP in a carrier the term “PLAP cream” is used.
Other appropriate forms of PLAP containing compositions may contain other suitable carriers in the forms of gels, lotions, unguents, emollients, colloidal dispersions, suspensions, emulsions, oils, sprays, liposomes, non-ionic detergents, foams, mousses, and the like as used in the skin care industry with no damaging effects on the skin. Preferably, the chosen carrier would enable PLAP to exert its antiacne effect or at least would not reduce it. In addition, the carrier should not be comedogenic and should not inhibit interaction of PLAP with the acne lesion. In the preparation of the carrier-PLAP mixture, PLAP is first dissolved in distilled water or a suitable buffer and then mixed with the carrier. The PLAP cream contains highly purified PLAP or rPLAP, in the amount of 0.1 to 10 mg per one gram carrier gently massaged onto the area of acne lesion. The amount of PLAP depends on the severity of acne. In cases of light, moderate and severe acnes the recommended amount of PLAP per 1 gram carrier is 0.1 to 0.5 mg, 0.6 to 2 mg, and 2.1 to 10 mg PLAP, respectively. Before each daily treatment the acne lesion needs to be cleaned with a facial cleanser as recommended by the manufacturer. The length of the daily treatments is typically for about 3 weeks, but it may be extended until the lesion is healed.
Complete recovery of the original skin texture required about 5 weeks with no additional treatments needed between 3 to 5 weeks.
Complete recovery of the original skin texture required about 6 weeks with no additional treatments needed between 3 to 6 weeks.
Complete recovery of the original skin texture required about 8 weeks with no additional treatments needed between 4 to 8 weeks.
This idea was tested with 16-17-year-old males who started to develop acne during a 2 to 4-day period. Treatments (2-mg PLAP in 1-gram Vaselinum cholesterinatum) were applied at bedtime only once.

[5] = test system: CCD 966 SK cells; assay: [U-14C]ATP hydrolysis and adenosine formation in intact CCD 966 SK fibroblasts; format: cell-based, human; conditions: 2 hours
Method: (§3) In these experiments, PLAP was incubated with human HaCaT cells and human 966 SK fibroblasts. The plasma membranes of both cell lines contain ectonucleotidases that hydrolyze ATP to result in the formation of adenosine. If PLAP binds ATP as reported earlier, it will compete with the ectonucleotidases for ATP. In this case, in the presence of PLAP the formation of adenosine, the final product of ATP hydrolysis, should be reduced. The experiment performed under this Example served to examine this possibility.
(§4) HaCaT and 966 SK cells were grown in 10% serum containing DMEM medium (0.1 ml) in 96-well plates to confluence. First, the medium was changed for serum-free medium. […] (0.1 mM) of [U-^14C] ATP (purchased from Amersham). Incubations in an incubator were performed for 2 hours. […] aliquots were withdrawn into small centrifuge tubes followed by the addition of 0.15 ml of chloroform methanol 2:1 mixture containing 1 mM adenosine (to help UV visualization and reduce cellular uptake of [U-^14C] Adenosine) to precipitate the proteins and eliminate lipids. After centrifugation, 5 µl aliquots of the lower phase were transferred to fluorescent PEI-cellulose (polyethyleneimine-impregnated cellulose) plates, and after drying the plates they were developed with water in a flat bottom chamber. After drying and visualizing the adenosine and nucleotide spots under UV (all nucleotides remained in the application spots), the respective areas were cut out, placed in scintillation vials, and radioactivity was measured in a liquid scintillation spectrometer. Data is the mean of three independent determinations (from three separate wells) ± S.D. in the same experiment.

[6] = test system: HaCaT cells; assay: [U-14C]ATP hydrolysis and adenosine formation in intact HaCaT cells; format: cell-based, human; conditions: 2 hours
Method: as §3, §4

[7] = CCD 966 SK fibroblasts, agent alone
[8] = PLAP, 500 nM, 0.1 mM [U-14C]ATP, mean ± S.D. of three wells

## Nc1ncnc2c1ncn2[C@@H]1O[C@H](COP(=O)(O)OP(=O)(O)OP(=O)(O)O)[C@@H](O)[C@H]1O [ATP, adenosine 5′ triphosphate, reference compound]
[1]; HaCaT cells, agent alone
  effect on proliferation (in words): no effects
[1]
  Viability of Cells (Absorption: A540) HaCaT cells: 0.841±0.037
[2]; [7]
  effect on proliferation (in words): no effects
[2]
  Viability of Cells (Absorption: A540) CCD 966 SK: 0.686±0.029

## Nc1nc2c(ncn2COCCO)c(=O)[nH]1 [acyclovir]
[3]
  effect on pain: no significant effect on pain
  time of full healing of shingles: by the end of third week
[3]; in 10-12 days
  remission of shingles: 40-50%

## O=C(OOC(=O)c1ccccc1)c1ccccc1 [benzoyl peroxide]
[4]; left side of face, as prescribed for 2 months
  visible effect on acne covered area: only small visible positive effects
[4]; left side of face, as prescribed for 3 months
  visible effect on acne covered area: only small visible positive effects
[4]; right side of face, as prescribed for 2 months
  visible effect on acne covered area: only small visible positive effects
[4]; right side of face, as prescribed for 3 months
  visible effect on acne covered area: only small visible positive effects

B1: PLAP: full length placental alkaline phosphatase, highly purified from commercial PLAP (Sigma-Aldrich) (protein, UniProt P05187 23-506, looked up)
Alkaline phosphatase, …: IIPVEEENPDFWNREAAEALGAAKKLQPAQTAAKNLIIFLGDGMGVSTVTAARILKGQKKDKLGPEIPLAMDRFPYVALSKTYNVDKHVPDSGATATAYLCGVKGNFQTIGLSAAARFNQCNTTRGNEVISVMNRAKKAGKSVGVVTTTRVQHASPAGTYAHTVNRNWYSDADVPASARQEGCQDIATQLISNMDIDVILGGGRKYMFRMGTPDPEYPDDYSQGGTRLDGKNLVQEWLAKRQGARYVWNRTELMQASLDPSVTHLMGLFEPGDMKYEIHRDSTLDPSLMEMTEAALRLLSRNPRGFFLFVEGGRIDHGHHESRAYRALTETIMFDDAIERAGQLTSEEDTLSLVTADHSHVFSFGGYPLRGSSIFGLAPGKARDRKAYTVLLYGNGPGYVLKDGARPDVTESESGSPEYRQQSAVPLDEETHAGEDVAVFARGPQAHLVHGVQEQTFIAHVMAFAACLEPYTACDLAPPAGTTD
[5]
  formation of radiolabeled adenosine (in words): dramatic reduction
  hydrolysis of ATP and related nucleotides (in words): greatly reduced the hydrolysis
[5]; [8]
  Total [U-14C] nucleotide: 1,653,949 ± 42,791 c.p.m./well
  [U-14C] Adenosine: 34,019 ± 4,892 c.p.m./well
[1]; HaCaT cells, agent alone
  effect on proliferation (in words): clearly stimulated proliferation
[1]
  Viability of Cells (Absorption: A540) HaCaT cells: 1.086± 0.047
[1]; epidermal (HaCaT) cells, in the presence of ATP
  effect on proliferation (in words): inhibited the proliferation
[6]
  formation of radiolabeled adenosine (in words): dramatic reduction
  hydrolysis of ATP and related nucleotides (in words): greatly reduced the hydrolysis
[6]; [8]
  Total [U-14C] nucleotide: 1,572,853 ± 33,737 c.p.m./well
  [U-14C] Adenosine: 71,048 ± 2,220 c.p.m./well
[4]; 16-17-year-old males, acne developing during 2 to 4 days, 2-mg PLAP in 1-gram Vaselinum cholesterinatum, applied once at bedtime
  time to complete healing of acne: 2 to 5 days
[4]; 16-17-year-old males, early acne, 2-mg PLAP in 1-gram carrier, applied once
  scar tissue formation: without any scar tissue formation
[2]; [7]
  effect on proliferation (in words): clearly stimulated proliferation
[2]
  Viability of Cells (Absorption: A540) CCD 966 SK: 0.853±0.040
[2]; fibroblasts (CCD 966 SK), in the presence of ATP
  effect on proliferation (in words): inhibited the proliferation
